In patent publication US20070099268A1, “Chimeric HCN channels” (priority 2005, published 2007):
Values joined by “and” are separate entries in the source; they are usually repeats but may differ in a detail not shown here. Equal values may be shown once.

Columns and labels:
[1] = system: neonatal ventricular myocytes; test: Voltage clamp (tail currents) of HCN2 expressed with AdHCN2 in neonatal ventricular myocytes; assay type: cell-based, rat
Method: For increased expression efficiency, an adenoviral construct for mHCN2 was prepared. Gene delivery and transfer procedures followed previously published methods (Ng et al., 2000; He et al., 1998). A DNA fragment (between EcoRI and XbaI restriction sites) that included mHCN2 DNA downstream of the CMV promoter was obtained from plasmid pTR-mHCN2 (Santoro and Tibbs, 1999) and subcloned into the shuttle vector pDC516 (AdMax™; Microbix Biosystems, Toronto, Canada). The resulting pDC516-mHCN2 shuttle plasmid was co-transfected with a 35.5 kb El-deleted Ad genomic plasmid pBHGΔE1,3FLP (AdMax™) into El-complementing HEK293 cells. […]
The whole-cell voltage clamp technique was employed to record native If or expressed IHCN2 or IHCN4. Action potentials were recorded in current clamp mode, again using a whole cell patch electrode. […]
(§1) The activation relation of the native or expressed current can be determined from the steady-state I-V relation. In this case, the reversal potential (Vf) was separately determined from the fully activated I-V relation (Accili et al., 1991) and used to generate the activation relation (y=I/(gmax*(V−Vf)), where gmax is the maximal conductance). […] Tail currents were measured at a negative voltage (−125 mV) to avoid contamination by transient outward and other currents at less negative voltages. […]

[2] = system: adult ventricular myocytes; test: Voltage clamp (tail currents) of HCN2 expressed with AdHCN2 in adult ventricular myocytes; assay type: cell-based, rat
Method: Freshly isolated adult ventricular myocytes were prepared using the procedure described by Kuznetsov et al. (1995). This entailed a Langendorff perfusion of collagenase, followed by trimming away of the atria. The remaining tissue was minced and dissociated in additional collagenase solution. The isolated myocytes were suspended in a SFM then plated on 9×22 mm glass coverslips at 0.5-1×10^3 cells/mm^2. Two to three hours later, after the myocytes had adhered to the coverslips, the adenoviral infection procedure was begun (see below).
For increased expression efficiency, an adenoviral construct for mHCN2 was prepared. Gene delivery and transfer procedures followed previously published methods (Ng et al., 2000; He et al., 1998). A DNA fragment (between EcoRI and XbaI restriction sites) that included mHCN2 DNA downstream of the CMV promoter was obtained from plasmid pTR-mHCN2 (Santoro and Tibbs, 1999) and subcloned into the shuttle vector pDC516 (AdMax™; Microbix Biosystems, Toronto, Canada). The resulting pDC516-mHCN2 shuttle plasmid was co-transfected with a 35.5 kb El-deleted Ad genomic plasmid pBHGΔE1,3FLP (AdMax™) into El-complementing HEK293 cells.
AdHCN2 infection of rat ventricular myocytes was carried out 2-3 h after the isolated cells were plated onto coverslips. The culture medium was removed from the dishes (35-mm) and the inoculum of 0.2-0.3 ml/dish was added containing AdHCN2. The value of m.o.i. (multiplicity of infection—the ratio of viral units to cells) was 15-100. The inoculum was dispersed over the cells every 20 min by gently tilting the dishes so that the cells were evenly exposed to the viral particles. The dishes were kept at 37° C. in a CO2 incubator during the adsorption period of 2 h, then the inoculum was discarded and the dishes were washed and refilled with the appropriate culture medium. The dishes remained in the incubator for 24-48 h before electrophysiological experiments were conducted.
(§2) The whole-cell voltage clamp technique was employed to record native If or expressed IHCN2 or IHCN4. Action potentials were recorded in current clamp mode, again using a whole cell patch electrode. Experiments were carried out on cells superfused at 35° C. Extracellular solution contained (mM): NaCl, 140; NaOH, 2.3; MgCl2, 1; KCl, 5.4; CaCl2, 1.0; HEPES, 5; glucose, 10; pH 7.4. To record from myocytes expressing native currents (If), myocytes expressing HCN2 (IHCN2) or HCN4 (IHCN4), [K^+]0 was increased to 10 mM, and MnCl2 (2 mM) and BaCl2 (4 mM) added to the superfusate to eliminate calcium and inward rectifier (IK1) currents. In some experiments CsCl (4 mM) was used extracellularly to identify the pacemaker current as the Cs-sensitive current. […]
The activation relation of the native or expressed current can be determined from the steady-state I-V relation. […]

[3] = system: oocyte; conditions: cited from earlier work
[4] = system: mammalian expression systems; conditions: cited from earlier work
[5] = system: neonatal rat ventricular myocytes; test: Voltage clamp of HCN2 or HCN4 plasmid (lipofectin) expressed in neonatal rat ventricular myocytes; assay type: cell-based
From the text: cDNAs encoding mouse HCN2 (mHCN2, GenBank AJ225122) or HCN4 (mHCN4, GenBank deposit in progress) were subcloned into the pCI mammalian expression vector (Promega, Madison, Wis.). The resulting plasmids (pCI-mHCN2 or pCI-mHCN4) were used for neonatal rat ventricular myocyte transfection, as indicated. A separate plasmid (pEGFP-CI; Clontech, Palo Alto, Calif.) expressing the gene of enhanced green fluorescent protein (EGFP) as a visual marker for successful DNA transfer was included in all transfection experiments. For transfection, 2 μg of pCI-mHCN and […] of pEGFP-CI were first incubated in 200 μl of SFM containing 10 μl of lipofectin (Gibco Life Technologies, Rockville, Md.) at room temperature for 45 min. The mixture was then added to a 35-mm petri dish containing […] suspended in 0.8 ml of SFM. After overnight incubation at 37° C. in a CO2 incubator, the medium containing the plasmids and lipofectin was discarded and the dish was refilled with 2 ml of fresh SFM.
as §2, with “current. The patch pipette solution included (mM): aspartic acid, 130; KOH, 146; NaCl, 10; CaCl2, 2; EGTA-KOH, 5; Mg-ATP, 2; HEPES-KOH, 10, pH 7.2. Where indicated, 10 μM cAMP was included in the pipette solution. A fast solution changing apparatus expedited the experimental protocols. The pipette resistance was typically 1-3 M. An Axopatch-200B amplifier and pClampS software (Axon Instruments) were used for acquisition and data analysis.” for “current.”
as §1

B1: mHCN2: mouse HCN2 hyperpolarization-activated, cyclic nucleotide-gated channel, wild type (GenBank AJ225122) (protein)
chain: MDARGGGGRPGDSPGTTPAPGPPPPPPPPAPPQPQPPPAPPPNPTTPSHPESADEPGPRARLCSRDSACTPGAAKGGANGECGRGEPQCSPEGPARGPKVSFSCRGAASGPSAAEEAGSEEAGPAGEPRGSQASFLQRQFGALLQPGVNKFSLRMFGSQKAVEREQERVKSAGAWIIHPYSDFRFYWDFTMLLFMVGNLIIIPVGITFFKDETTAPWIVFNVVSDTFFLMDLVLNFRTGIVIEDNTEIILDPEKIKKKYLRTWFVVDFVSSIPVDYIFLIVEKGIDSEVYKTARALRIVRFTKILSLLRLLRLSRLIRYIHQWEEIFHMTYDLASAVMRICNLISMMLLLCHWDGCLQFLVPMLQDFPSDCWVSINNMVNHSWSELYSFALFKAMSHMLCIGYGRQAPESMTDIWLTMLSMIVGATCYAMFIGHATALIQSLDSSRRQYQEKYKQVEQYMSFHKLPADFRQKIHDYYEHRYQGKMFDEDSILGELNGPLREEIVNFNCRKLVASMPLFANADPNFVTAMLTKLKFEVFQPGDYIIREGTIGKKMYFIQHGVVSVLTKGNKEMKLSDGSYFGEICLLTRGRRTASVRADTYCRLYSLSVDNFNEVLEEYPMMRRAFETVAIDRLDRIGKKNSILLHKVQHDLSSGVFNNQENAIIQEIVKYDREMVQQAELGQRVGLFPPPPPPQVTSAIATLQQAVAMSFCPQVARPLVGPLALGSPRLVRRAPPGPLPPAASPGPPAASPPAAPSSPRAPRTSPYGVPGSPATRVGPALPARRLSRASRPLSASQPSLPHGVPAPSPAASARPASSSTPRLGPAPTARTAAPSPDRRDSASPGAASGLDPLDSARSRLSSNL
In the case of B1, the “shift of voltage dependence by saturating cAMP, neonate” value ([1]; 10 μM cAMP in the pipette) is reported as 17 mV, the “slope factor (K), neonatal myocytes” value ([1]; AdHCN2) is reported as 9.8±0.6 mV and the “shift of voltage dependence by saturating cAMP, adult” value ([2]; 10 μM cAMP in the pipette) is reported as 14 mV. The “slope factor (K), adult myocytes” value ([2]; AdHCN2) was 6.5±0.5 mV, the “negative shift of voltage dependence of activation/deactivation kinetics in the adult” value ([2]; adult vs neonatal) was 21 mV and the “shift in the activation relation (midpoints), adult vs neonatal myocytes” value ([2]; negative in the adult) was 18 mV. For the same molecule, the midpoint of activation [3] was −78 mV, the “midpoint of activation reported in other mammalian expression studies” value [4] was −83 to −97 mV and the “slope factor (K)” value ([5]; lipofectin transfection) was 7.7±0.7 mV. For the same molecule, the “difference in midpoint of activation of HCN2 relative to HCN4” value ([5]; neonatal myocytes) was 8.5 mV and 9 mV.
